Data: CN113087789A

Key:
[1] = target: M13KO7辅助噬菌体 (丝状噬菌体pVIII蛋白) (M13KO7 helper phage (filamentous phage)) (UniProt P69541); assay: indirect ELISA, plate coated with 1.0×10^9 pfu/mL M13KO7 helper phage, ascites antibody
[2] = target: M13KO7辅助噬菌体 (丝状噬菌体pVIII蛋白) (M13KO7 helper phage (filamentous phage)) (UniProt P69541); assay: indirect ELISA, plate coated with 1.0×10^9 pfu/mL M13KO7 helper phage, purified antibody (1.0 mg/mL stock)

Sequence of UniProt P69541 (P69541 24-73): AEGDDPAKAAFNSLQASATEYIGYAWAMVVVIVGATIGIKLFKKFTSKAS

B1: 丝状噬菌体pVIII蛋白单克隆抗体P8E4 (antibody, V domains shown)
VH: QIQLQQSGAELARPGASVRLSCKRSGYTFTTYWLQWLKQRAGQGLEWIGAIYPGNGDTRYFPNFKGQATLTADRSSSTRYLQLSSLASESSAVYYCASLLRTDFAMDYRGQGTSVTVSS
VL: DIVLTQSPASEAVSLGQRATISCRTSESVDTYAISFIHWYQQKPGWPPKLLIYRASNAESGIPARFAGSGSRPDFTLSIRPVEADDVATYYCQQSDKDPGSFGGGTKLEIK
效价 (titer, ascites) (fold dilution) [1]: 102000
效价 (titer, purified antibody 1.0 mg/mL) (fold dilution) [2]: 6400
